Broadly, the Ki is a measure of affinity in units of concentration, obtained from inhibition or displacement. A lower Ki goes with a stronger hold on the target.

The chains are these.
B1: Compound 133 (peptide)
peptide: Isovaleryl-APEK([AEEA-AEEA-γGlu-C18 diacid])PEEDASPEEVQRYYVELRHYYNWLTRQRY-NH2
SMILES: CC(C)CC(=O)N[C@@H](C)C(=O)N1CCC[C@H]1C(=O)N[C@@H](CCC(=O)O)C(=O)N[C@@H](CCCCNC(=O)COCCOCCNC(=O)COCCOCCNC(=O)CC[C@H](NC(=O)CCCCCCCCCCCCCCCCC(=O)O)C(=O)O)C(=O)N1CCC[C@H]1C(=O)N[C@@H](CCC(=O)O)C(=O)N[C@@H](CCC(=O)O)C(=O)N[C@@H](CC(=O)O)C(=O)N[C@@H](C)C(=O)N[C@@H](CO)C(=O)N1CCC[C@H]1C(=O)N[C@@H](CCC(=O)O)C(=O)N[C@@H](CCC(=O)O)C(=O)N[C@H](C(=O)N[C@@H](CCC(N)=O)C(=O)N[C@@H](CCCNC(=N)N)C(=O)N[C@@H](Cc1ccc(O)cc1)C(=O)N[C@@H](Cc1ccc(O)cc1)C(=O)N[C@H](C(=O)N[C@@H](CCC(=O)O)C(=O)N[C@@H](CC(C)C)C(=O)N[C@@H](CCCNC(=N)N)C(=O)N[C@@H](Cc1c[nH]cn1)C(=O)N[C@@H](Cc1ccc(O)cc1)C(=O)N[C@@H](Cc1ccc(O)cc1)C(=O)N[C@@H](CC(N)=O)C(=O)N[C@@H](Cc1c[nH]c2ccccc12)C(=O)N[C@@H](CC(C)C)C(=O)N[C@H](C(=O)N[C@@H](CCCNC(=N)N)C(=O)N[C@@H](CCC(N)=O)C(=O)N[C@@H](CCCNC(=N)N)C(=O)N[C@@H](Cc1ccc(O)cc1)C(N)=O)[C@@H](C)O)C(C)C)C(C)C
B2: Compound 138 (peptide)
peptide: Isovaleryl-APAK([AEEA-AEEA-γGlu-C18 diacid])PEEDASPEELQQYYVSLRHYYNWLTRQRY-NH2
SMILES: CC(C)CC(=O)N[C@@H](C)C(=O)N1CCC[C@H]1C(=O)N[C@@H](C)C(=O)N[C@@H](CCCCNC(=O)COCCOCCNC(=O)COCCOCCNC(=O)CC[C@H](NC(=O)CCCCCCCCCCCCCCCCC(=O)O)C(=O)O)C(=O)N1CCC[C@H]1C(=O)N[C@@H](CCC(=O)O)C(=O)N[C@@H](CCC(=O)O)C(=O)N[C@@H](CC(=O)O)C(=O)N[C@@H](C)C(=O)N[C@@H](CO)C(=O)N1CCC[C@H]1C(=O)N[C@@H](CCC(=O)O)C(=O)N[C@@H](CCC(=O)O)C(=O)N[C@@H](CC(C)C)C(=O)N[C@@H](CCC(N)=O)C(=O)N[C@@H](CCC(N)=O)C(=O)N[C@@H](Cc1ccc(O)cc1)C(=O)N[C@@H](Cc1ccc(O)cc1)C(=O)N[C@H](C(=O)N[C@@H](CO)C(=O)N[C@@H](CC(C)C)C(=O)N[C@@H](CCCNC(=N)N)C(=O)N[C@@H](Cc1c[nH]cn1)C(=O)N[C@@H](Cc1ccc(O)cc1)C(=O)N[C@@H](Cc1ccc(O)cc1)C(=O)N[C@@H](CC(N)=O)C(=O)N[C@@H](Cc1c[nH]c2ccccc12)C(=O)N[C@@H](CC(C)C)C(=O)N[C@H](C(=O)N[C@@H](CCCNC(=N)N)C(=O)N[C@@H](CCC(N)=O)C(=O)N[C@@H](CCCNC(=N)N)C(=O)N[C@@H](Cc1ccc(O)cc1)C(N)=O)[C@@H](C)O)C(C)C
B3: Compound 135 (peptide)
peptide: Isovaleryl-APEK([AEEA-AEEA-γGlu-C18 diacid])PEADASPEELQRYYVELRHYYNWLTRQRY-NH2
SMILES: CC(C)CC(=O)N[C@@H](C)C(=O)N1CCC[C@H]1C(=O)N[C@@H](CCC(=O)O)C(=O)N[C@@H](CCCCNC(=O)COCCOCCNC(=O)COCCOCCNC(=O)CC[C@H](NC(=O)CCCCCCCCCCCCCCCCC(=O)O)C(=O)O)C(=O)N1CCC[C@H]1C(=O)N[C@@H](CCC(=O)O)C(=O)N[C@@H](C)C(=O)N[C@@H](CC(=O)O)C(=O)N[C@@H](C)C(=O)N[C@@H](CO)C(=O)N1CCC[C@H]1C(=O)N[C@@H](CCC(=O)O)C(=O)N[C@@H](CCC(=O)O)C(=O)N[C@@H](CC(C)C)C(=O)N[C@@H](CCC(N)=O)C(=O)N[C@@H](CCCNC(=N)N)C(=O)N[C@@H](Cc1ccc(O)cc1)C(=O)N[C@@H](Cc1ccc(O)cc1)C(=O)N[C@H](C(=O)N[C@@H](CCC(=O)O)C(=O)N[C@@H](CC(C)C)C(=O)N[C@@H](CCCNC(=N)N)C(=O)N[C@@H](Cc1c[nH]cn1)C(=O)N[C@@H](Cc1ccc(O)cc1)C(=O)N[C@@H](Cc1ccc(O)cc1)C(=O)N[C@@H](CC(N)=O)C(=O)N[C@@H](Cc1c[nH]c2ccccc12)C(=O)N[C@@H](CC(C)C)C(=O)N[C@H](C(=O)N[C@@H](CCCNC(=N)N)C(=O)N[C@@H](CCC(N)=O)C(=O)N[C@@H](CCCNC(=N)N)C(=O)N[C@@H](Cc1ccc(O)cc1)C(N)=O)[C@@H](C)O)C(C)C
B4: Compound 134 (peptide)
peptide: Isovaleryl-APEK([AEEA-AEEA-γGlu-C18 diacid])PEEDASPEEIQRYYTELRHYYNWLTRQRY-NH2
SMILES: CC[C@H](C)[C@H](NC(=O)[C@H](CCC(=O)O)NC(=O)[C@H](CCC(=O)O)NC(=O)[C@@H]1CCCN1C(=O)[C@H](CO)NC(=O)[C@H](C)NC(=O)[C@H](CC(=O)O)NC(=O)[C@H](CCC(=O)O)NC(=O)[C@H](CCC(=O)O)NC(=O)[C@@H]1CCCN1C(=O)[C@H](CCCCNC(=O)COCCOCCNC(=O)COCCOCCNC(=O)CC[C@H](NC(=O)CCCCCCCCCCCCCCCCC(=O)O)C(=O)O)NC(=O)[C@H](CCC(=O)O)NC(=O)[C@@H]1CCCN1C(=O)[C@H](C)NC(=O)CC(C)C)C(=O)N[C@@H](CCC(N)=O)C(=O)N[C@@H](CCCNC(=N)N)C(=O)N[C@@H](Cc1ccc(O)cc1)C(=O)N[C@@H](Cc1ccc(O)cc1)C(=O)N[C@H](C(=O)N[C@@H](CCC(=O)O)C(=O)N[C@@H](CC(C)C)C(=O)N[C@@H](CCCNC(=N)N)C(=O)N[C@@H](Cc1c[nH]cn1)C(=O)N[C@@H](Cc1ccc(O)cc1)C(=O)N[C@@H](Cc1ccc(O)cc1)C(=O)N[C@@H](CC(N)=O)C(=O)N[C@@H](Cc1c[nH]c2ccccc12)C(=O)N[C@@H](CC(C)C)C(=O)N[C@H](C(=O)N[C@@H](CCCNC(=N)N)C(=O)N[C@@H](CCC(N)=O)C(=O)N[C@@H](CCCNC(=N)N)C(=O)N[C@@H](Cc1ccc(O)cc1)C(N)=O)[C@@H](C)O)[C@@H](C)O
B5: Compound 139 (peptide)
peptide: Isovaleryl-APEK([AEEA-AEEA-γGlu-C18 diacid])PEEESSPEELQRYYVSLRHYYNWLTRQRY-NH2
SMILES: CC(C)CC(=O)N[C@@H](C)C(=O)N1CCC[C@H]1C(=O)N[C@@H](CCC(=O)O)C(=O)N[C@@H](CCCCNC(=O)COCCOCCNC(=O)COCCOCCNC(=O)CC[C@H](NC(=O)CCCCCCCCCCCCCCCCC(=O)O)C(=O)O)C(=O)N1CCC[C@H]1C(=O)N[C@@H](CCC(=O)O)C(=O)N[C@@H](CCC(=O)O)C(=O)N[C@@H](CCC(=O)O)C(=O)N[C@@H](CO)C(=O)N[C@@H](CO)C(=O)N1CCC[C@H]1C(=O)N[C@@H](CCC(=O)O)C(=O)N[C@@H](CCC(=O)O)C(=O)N[C@@H](CC(C)C)C(=O)N[C@@H](CCC(N)=O)C(=O)N[C@@H](CCCNC(=N)N)C(=O)N[C@@H](Cc1ccc(O)cc1)C(=O)N[C@@H](Cc1ccc(O)cc1)C(=O)N[C@H](C(=O)N[C@@H](CO)C(=O)N[C@@H](CC(C)C)C(=O)N[C@@H](CCCNC(=N)N)C(=O)N[C@@H](Cc1c[nH]cn1)C(=O)N[C@@H](Cc1ccc(O)cc1)C(=O)N[C@@H](Cc1ccc(O)cc1)C(=O)N[C@@H](CC(N)=O)C(=O)N[C@@H](Cc1c[nH]c2ccccc12)C(=O)N[C@@H](CC(C)C)C(=O)N[C@H](C(=O)N[C@@H](CCCNC(=N)N)C(=O)N[C@@H](CCC(N)=O)C(=O)N[C@@H](CCCNC(=N)N)C(=O)N[C@@H](Cc1ccc(O)cc1)C(N)=O)[C@@H](C)O)C(C)C
B6: Compound 136 (peptide)
peptide: Isovaleryl-APEK([AEEA-AEEA-γGlu-C18 diacid])PEADSSPEELQRYYVSLRHYYNWLTRQRY-NH2
SMILES: CC(C)CC(=O)N[C@@H](C)C(=O)N1CCC[C@H]1C(=O)N[C@@H](CCC(=O)O)C(=O)N[C@@H](CCCCNC(=O)COCCOCCNC(=O)COCCOCCNC(=O)CC[C@H](NC(=O)CCCCCCCCCCCCCCCCC(=O)O)C(=O)O)C(=O)N1CCC[C@H]1C(=O)N[C@@H](CCC(=O)O)C(=O)N[C@@H](C)C(=O)N[C@@H](CC(=O)O)C(=O)N[C@@H](CO)C(=O)N[C@@H](CO)C(=O)N1CCC[C@H]1C(=O)N[C@@H](CCC(=O)O)C(=O)N[C@@H](CCC(=O)O)C(=O)N[C@@H](CC(C)C)C(=O)N[C@@H](CCC(N)=O)C(=O)N[C@@H](CCCNC(=N)N)C(=O)N[C@@H](Cc1ccc(O)cc1)C(=O)N[C@@H](Cc1ccc(O)cc1)C(=O)N[C@H](C(=O)N[C@@H](CO)C(=O)N[C@@H](CC(C)C)C(=O)N[C@@H](CCCNC(=N)N)C(=O)N[C@@H](Cc1c[nH]cn1)C(=O)N[C@@H](Cc1ccc(O)cc1)C(=O)N[C@@H](Cc1ccc(O)cc1)C(=O)N[C@@H](CC(N)=O)C(=O)N[C@@H](Cc1c[nH]c2ccccc12)C(=O)N[C@@H](CC(C)C)C(=O)N[C@H](C(=O)N[C@@H](CCCNC(=N)N)C(=O)N[C@@H](CCC(N)=O)C(=O)N[C@@H](CCCNC(=N)N)C(=O)N[C@@H](Cc1ccc(O)cc1)C(N)=O)[C@@H](C)O)C(C)C

*1 amine or outer side, *2 acyl side, *3 side chain or, on linkers, in order; H or OH if unused. Side-chain parts run from the residue outwards. The star is where a group is joined. C18 diacid = O=C(O)CCCCCCCCCCCCCCCCC(=O)*; γGlu = O=C(O)[C@H](CCC(=O)[*:2])N[*:1]; Isovaleryl = CC(C)CC(=O)*; AEEA = NCCOCCOCC(=O)O

In the experiment the target is T1, human neuropeptide Y2 receptor (human, UniProt P49146 1-381).
T1 construct: whole, on cells; also called hNPY2 receptor; hNPY2-R
T1 sequence (looked up): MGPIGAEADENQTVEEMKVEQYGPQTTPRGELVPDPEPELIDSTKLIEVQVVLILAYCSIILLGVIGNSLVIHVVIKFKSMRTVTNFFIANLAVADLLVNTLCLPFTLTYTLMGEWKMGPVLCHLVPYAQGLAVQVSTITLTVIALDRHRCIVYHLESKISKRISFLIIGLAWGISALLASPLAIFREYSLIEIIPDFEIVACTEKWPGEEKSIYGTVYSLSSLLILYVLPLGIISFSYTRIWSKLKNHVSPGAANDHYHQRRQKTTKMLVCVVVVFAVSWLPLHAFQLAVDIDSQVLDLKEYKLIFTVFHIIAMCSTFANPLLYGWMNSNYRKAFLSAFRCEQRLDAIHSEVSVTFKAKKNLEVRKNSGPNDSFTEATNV
The experiment can be described thus: radioligand competition (125I-PYY(1-36)), hNPY2R membranes. The essentials:
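Commercial human Y2 receptor membranes (0.5 μg protein/well) were incubated with peptide for 2 h at room temperature in 50 mM HEPES, 5 mM MgCl₂, 1 mM CaCl₂, pH 7.4, with 0.2% ovalbumin. Bound radioligand was separated on PEI-soaked GF/C filters and counted by scintillation, and IC₅₀ came from nonlinear sigmoidal regression.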
Take B1: the affinity, expressed as Ki, was 2.31 nM. This counts as single-digit nanomolar.

With B2, affinity was put at a Ki of 1.42 nM.

With B3, the Ki was found to be 1.31 nM. The Ki values of the last two molecules are within 1.5-fold of each other. Then B4, with 1.17 nM; and B5, with 3.83 nM; and B6, with 0.89 nM.

The record behind these values is patent US20210139548A1 (published 2021).
